The values that follow come from patent publication US20230416760A1 (CURATORS OF THE UNIVERSITY OF MISSOURI, published 2023).

Data set [1] relates to all three BADCs (recombinant BADC1, BADC2, BADC3).
The target in data set [2] is α-carboxyltransferase (α-CT) subunit of hetACCase, AT2G38040, Arabidopsis thaliana (Arabidopsis thaliana) (UniProt Q9LD43). The data set is described as follows: co-IP from A. thaliana chloroplast lysate with anti-α-CT antibody, LC-MS/MS, n=7.
For data set [3], the target named is BCCP2 (AT5G15530), biotin carboxyl carrier protein isoform 2, Arabidopsis thaliana (Arabidopsis thaliana) (UniProt Q9LLC1). The data set is described as follows: co-IP from A. thaliana chloroplast lysate with anti-BCCP2 antibody, LC-MS/MS, n=7.
For data set [4], the target named is T1, heteromeric acetyl-coenzyme A carboxylase (hetACCase) of Arabidopsis thaliana (Arabidopsis thaliana).
T1 chain 1: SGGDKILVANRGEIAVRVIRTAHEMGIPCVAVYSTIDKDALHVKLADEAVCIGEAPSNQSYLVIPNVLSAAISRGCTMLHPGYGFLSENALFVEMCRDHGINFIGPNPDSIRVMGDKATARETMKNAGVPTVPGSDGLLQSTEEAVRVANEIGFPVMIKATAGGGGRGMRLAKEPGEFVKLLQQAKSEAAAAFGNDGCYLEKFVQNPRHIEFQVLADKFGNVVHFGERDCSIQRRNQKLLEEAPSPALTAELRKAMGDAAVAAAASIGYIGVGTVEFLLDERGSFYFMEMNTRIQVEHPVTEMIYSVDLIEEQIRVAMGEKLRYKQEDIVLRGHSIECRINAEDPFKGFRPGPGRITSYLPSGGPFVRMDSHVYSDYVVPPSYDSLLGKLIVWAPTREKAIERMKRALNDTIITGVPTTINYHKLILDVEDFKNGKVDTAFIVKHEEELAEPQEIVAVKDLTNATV
T1 chain 2: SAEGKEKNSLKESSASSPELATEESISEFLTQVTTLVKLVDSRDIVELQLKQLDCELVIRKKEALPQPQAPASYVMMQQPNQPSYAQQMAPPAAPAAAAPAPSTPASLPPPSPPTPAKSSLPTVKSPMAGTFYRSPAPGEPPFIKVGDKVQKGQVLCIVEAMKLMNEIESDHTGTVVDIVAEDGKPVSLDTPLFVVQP
T1 chain 3: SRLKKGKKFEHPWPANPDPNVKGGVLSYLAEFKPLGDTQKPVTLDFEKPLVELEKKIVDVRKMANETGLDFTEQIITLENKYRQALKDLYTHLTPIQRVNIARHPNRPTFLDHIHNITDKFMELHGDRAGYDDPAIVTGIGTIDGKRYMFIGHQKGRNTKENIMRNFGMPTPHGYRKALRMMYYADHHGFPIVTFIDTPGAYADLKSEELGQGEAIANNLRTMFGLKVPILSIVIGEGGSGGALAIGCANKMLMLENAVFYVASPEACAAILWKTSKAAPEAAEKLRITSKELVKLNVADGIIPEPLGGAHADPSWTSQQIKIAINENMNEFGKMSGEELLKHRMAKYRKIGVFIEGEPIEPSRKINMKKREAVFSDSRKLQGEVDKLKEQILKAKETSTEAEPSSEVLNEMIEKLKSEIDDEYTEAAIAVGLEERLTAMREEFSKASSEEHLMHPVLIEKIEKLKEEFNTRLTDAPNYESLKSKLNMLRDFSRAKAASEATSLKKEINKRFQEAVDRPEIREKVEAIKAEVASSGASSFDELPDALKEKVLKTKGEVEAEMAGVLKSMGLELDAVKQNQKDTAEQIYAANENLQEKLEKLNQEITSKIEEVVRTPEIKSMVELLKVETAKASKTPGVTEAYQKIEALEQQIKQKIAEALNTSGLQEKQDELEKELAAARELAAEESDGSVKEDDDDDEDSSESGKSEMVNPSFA
T1 chain 4: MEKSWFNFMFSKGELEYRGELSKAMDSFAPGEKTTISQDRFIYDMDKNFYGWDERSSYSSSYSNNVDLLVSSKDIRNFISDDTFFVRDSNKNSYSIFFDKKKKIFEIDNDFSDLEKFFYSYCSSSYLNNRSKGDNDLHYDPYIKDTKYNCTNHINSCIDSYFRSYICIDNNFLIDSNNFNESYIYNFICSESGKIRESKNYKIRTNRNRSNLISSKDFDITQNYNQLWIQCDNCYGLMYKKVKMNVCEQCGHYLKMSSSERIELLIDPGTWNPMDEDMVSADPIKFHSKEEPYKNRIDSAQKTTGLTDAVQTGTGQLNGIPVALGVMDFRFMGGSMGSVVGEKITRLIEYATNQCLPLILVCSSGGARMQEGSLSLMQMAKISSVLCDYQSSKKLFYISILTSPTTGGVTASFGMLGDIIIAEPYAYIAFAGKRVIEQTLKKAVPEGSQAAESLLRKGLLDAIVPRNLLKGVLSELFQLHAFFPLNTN
The data set is described as follows: inhibition of ACCase activity in 20-day-old A. thaliana leaf extracts by increasing concentrations of recombinant BADC1.
Protocol: ACCase activity was monitored in vitro in 20-day-old A. thaliana leaf extracts with increasing concentrations of recombinant BADC1. Specific activity was determined for each experiment and 0 μM controls were normalized to 1. Specific activity values for controls ranged from 0.84-2.00 nmol/min/mg. Each data point represented the average of four biological replicates, with each biological replicate comprised of four light-adapted leaves.

Data set [5] deals with the molecule itself. The data set is described as follows: intact mass analysis and non-reducing SDS-PAGE of purified recombinant protein.

For the molecule “heteromeric acetyl-coenzyme A carboxylase (hetACCase) of Arabidopsis thaliana”, the “hetACCase activity in ten-day-old A. thaliana silique extracts (H14CO3 incorporation), 10 µM recombinant protein” value in data set [1] is “all three BADCs inhibited hetACCase activity by 25 to 37%”.

B1: BADC1 (AT3G56130), biotin/lipoyl attachment domain-containing protein, Arabidopsis thaliana (other)
chain: AKAAKSSTTTISDGSSDASVSDGKKTVRRITFPKEVEALVHEMCDETEVAVLQLKVGDFEMNLKRKIGAATNPIPVADISPTVAPPIPSEPMNKSASSAPSPSQAKPSSEKVSPFKNTSYGKPAKLAALEASGSTNYVLVTSPAVGKFQRSRTVKGKKQSPSCKEGDAIKEGQVIGYLHQLGTELPVTSDVAGEVLKLLSDDGDSVGYGDPLVAVLPSFHDINIQ
notes: Recombinant and yeast two-hybrid constructs were made without the transit peptide predicted by TargetP; also called AtBADC1
Usually Ki stands for a measure of affinity in units of concentration, obtained from inhibition or displacement. Consider B1, for which the replicates (of seven) of the co-IP in which the protein was present in data set [2] was 1 replicates; in data set [3] it was 7 replicates. Besides, the Ki in data set [4] is ~4.3 µM.

B2: BADC2 (AT1G52670), Single hybrid motif protein, Arabidopsis thaliana (other)
chain: TTLRSVKAIQLSTVPPAETEAIADVKDSDETKSTVVNTHLMPKSSEVEALISEITDSSSIAEFELKLGGFRLYVARKLTDESSPPPQQIQPVVAASATPEGVHTNGSATSSSLAITKTSSSSADRPQTLANKAADQGLVILQSPTVGYFRRSKTIKGKRTPTICKEKDIVKEGQVLCYIEQLGGQIPVESDVSGEIVKILREDGEPVGYNDALITVLPSFPGIKKLQ
notes: His-tagged or untagged from E. coli, bait/prey fusion in yeast two-hybrid, native protein in co-IPs; also called AtBADC2
For B2, the replicates (of seven) of the co-IP in which the protein was present in data set [2] was 2 replicates; in data set [3], 6 replicates. In data set [5], the binding result is recorded as “no binding”.
